According to patent US20150196533A1, “METHOD FOR CONCURRENT TREATMENT OF PAIN AND DEPRESSION” (The General Hospital Corporation, priority 2012, published 2015):

Tested on: IDO1 expression in Neuro2a cells
Experiment: IL-6 exposure of cultured Neuro2a cells: IDO1 expression and activity
Type: cell-based
Conditions: 0.5 ng/ml for 24 hours
Experimental: Neuro2a cells were cultured in minimal essential (EAGLE) medium (Invitrogen) supplemented with 10% fetal bovine serum, 100 U/ml penicillin, and 100 μg/ml streptomycin (Invitrogen) in a humidified atmosphere of 5% CO2 and 95% air at 37° C. Cells were treated with 0.5 ng/ml IL-6 or vehicle and collected 24 hours later for assays (74).
Rats were anesthetized with pentobarbital (50 mg/kg, i.p.) and perfused transcardially with cold 0.9% saline (pH 7.4±0.1) followed by cold 4% paraformaldehyde in a phosphate buffer (PB, 0.1M, pH 7.4±0.1). Brains were removed and placed in the same fixative for post-fixation at 4° C. for 6 hours. For cryoprotection, the samples were kept with cold 30% sucrose in phosphate buffer saline (PBS) at 4° C. until samples sank to the bottom. Coronal brain sections (30 μm) were cut using a cryostat and then floated in PBS. Sections were blocked with 5% normal donkey serum in 0.3% Triton X-100/PBS for 1 hour at room temperature. Free floating sections were incubated overnight at 4° C. on a rocker with one of the following primary antibodies: 1:100, IDO1 rabbit polyclonal (Santa Cruz Biotechnology Inc.); 1:1,000, NeuN mouse monoclonal (Chemicon); 1:1,000, GFAP mouse monoclonal (BD Bioscience Pharmingen); 1:1,000, Iba-1 mouse monoclonal (Abcam). Sections were then washed with PBS three times and incubated with 1:300 FITC- or cyanine3-conjugated secondary antibody (JacksonlnununoResearch Laboratories Inc) for 1 hour at room temperature. Blue fluorescent DAPI (1:300; Invitrogen) was used to stain the nucleus of fixed cultured Neuro2a cells for 15 minutes.
Rats were sacrificed under pentobarbital anesthesia. The hippocampus was separated from the brain and immediately stored on dry ice and kept at −80° C. until use. Samples were homogenized in a lysis buffer with SDS containing a cocktail of proteinase inhibitors (Roche). Samples were separated on an SDS-PAGE gel (4%-15% gradient gel; Bio-Rad) and transferred to polyvinylidene difluoride filter (PVDF) membranes (Millipore). Membranes were blocked with 5% nonfat dried milk for 1 hour at room temperature and incubated over night at 4° C. on a rocker with one of following primary antibody: 1:200 IDO1 (Santa Cruz Biotechnology Inc.; rabbit polyclonal antibody), 1:200 IDO1 (Novius Biologicals; rabbit polyclonal antibody), 1:500 JAK2 (Santa Cruz Biotechnology Inc.; rabbit polyclonal antibody), 1:1,000 STAT3 (Millipore; rabbit polyclonal antibody), 1:5,000 p-STAT3 (Abcam; rabbit monoclonal antibody). After membranes were washed with PBS×4, membranes were incubated with 1:8,000 HRP conjugated secondary antibody (Amersham, Biosciences) for 1 hour at room temperature on a rocker. The membranes were washed with PBS×4 and blots were visualized in enhanced Chemiluminescent (ECL) solution (Pierce) for 5 minutes and exposed to hyperfilms (Kodak) for 15 minutes. Blots were again incubated in a Stripping buffer (Pierce) for 15 minutes at room temperature on a rocker and reprobed with 1:12,000 anti-β-actin antibody (Abeam Inc.) as a loading control. Western blots were made in triplicates. Band density was measured and normalized against a loading control band.
Total RNA was isolated from hippocampal samples using TRIzol reagent (Invitrogen). Four μg of total RNA was used to synthesize the first strand cDNA using SuperScript III kit (Invitrogen). Four μl of cDNA was put into 20 μl vessel with 1 μl of 20× TaqMan Gene Expression Assay. Taqman Gene Expression Assays (Applied Biosystems) containing primers and a Taqman probe were used to quantify each gene of interest. The genes examined were IL-6 (Rn01410330 m1, M26744.1) and IDO1 (Rn00576778 m1, AF312699.1) for rats and IL-6 (Mm00446190 m1, X54542.1) and IDO1 (Mm00492586 m1, M69109.1) for mice. The reaction was performed in duplicate with the following conditions: denaturing at 95° C. for 30 s, annealing at 60° C. for 2 min, extension at 68° C. for 2 min for 40 cycles using a 7300 Real-Time PCR System (Applied Biosystems). […]

B1: IL-6: exogenous IL-6 (recombinant rat IL-6), proinflammatory cytokine (protein, UniProt P20607 25-211, looked up)
Interleukin-6: FPTSQVRRGDFTEDTTHNRPVYTTSQVGGLITYVLREILEMRKELCNGNSDCMNSDDALSENNLKLPEIQRNDGCFQTGYNQEICLLKICSGLLEFRFYLEFVKNNLQDNKKDKARVIQSNTETLVHIFKQEIKDSYKIVLPTPTSNALLMEKLESQKEWLRTKTIQLILKALEEFLKVTMRSTRQT
  IDO1 immunoreactivity (FIG. 8A): increased
  IDO activity [KYN/TRP ratio and 5-HT/TRP ratio]: increased
P<0.05
  kynurenine/tryptophan ratio (HPLC; FIG. 8D): increased kynurenine/tryptophan ratio
  serotonin/tryptophan ratio (HPLC; FIG. 8E): decreased serotonin/tryptophan ratio
P<0.05 vs vehicle
  IDO1 mRNA expression (real-time PCR; FIG. 8B): significantly increased
  IDO1 protein expression (Western blot; FIG. 8C): significantly increased
